Measurements: publication PMC7308368, “Structure of the polymerase ε holoenzyme and atomic model of the leading strand replisome” (Nature Communications, 2020)

B1: Dpb3 subunit of S. cerevisiae DNA polymerase ε holoenzyme (natural protein)
chain: MSNLVKEKAPVFPISKVKKIAKCDPEYVITSNVAISATAFAAELFVQNLVEESLVLAQLNSKGKTSLRLSLNSIEECVEKRDNFRFLEDAIKQLKKNSALDKKRELNMQPGRSDQEVVIEEPELHEDDGVEEEEEEDEVSEEEEPVHNEELLDDSKDQQNDKSTRSVASLLSRFQYKSALDVGEHSDSSDIEVDHTKSTDP
notes: DNA polymerase epsilon subunit C Dpb3, S. cerevisiae; histone fold domain and C-terminal region; The holoenzyme was purified on anti-Flag resin; source: yeast, subunit genes integrated under the Gal1/10 promotor, galactose-induced; purified as holoenzyme (anti-Flag resin, MonoS)

Assays:
[1] = target: B1; experiment: cryo-EM structure; recombinant Pol ε holoenzyme at ~1.6 mg/ml on C-flat holey carbon grids; rigid-state particles selected; 3.5 Å map; sample buffer 50 mM Hepes pH 7.5, 50 mM KGlu, 200 mM KAcetate, 1 mM DTT, 4 mM MgCl2; conditions: both partners purified
[2] = target: T1, Pol2 subunit of S. cerevisiae DNA polymerase ε holoenzyme (S. cerevisiae, UniProt P21951 1-2222); experiment: as above; conditions: both partners purified
T1 construct: DNA polymerase epsilon catalytic subunit Pol2, S. cerevisiae; 2222-residue polypeptide with catalytic NTD, NTD-CTD linker (Thr-1186 to Ser-1308) and non-catalytic CTD; The holoenzyme was purified on anti-Flag resin; source: yeast, subunit genes integrated under the Gal1/10 promotor, galactose-induced; purified as holoenzyme (anti-Flag resin, MonoS)
T1 sequence (P21951 whole entry): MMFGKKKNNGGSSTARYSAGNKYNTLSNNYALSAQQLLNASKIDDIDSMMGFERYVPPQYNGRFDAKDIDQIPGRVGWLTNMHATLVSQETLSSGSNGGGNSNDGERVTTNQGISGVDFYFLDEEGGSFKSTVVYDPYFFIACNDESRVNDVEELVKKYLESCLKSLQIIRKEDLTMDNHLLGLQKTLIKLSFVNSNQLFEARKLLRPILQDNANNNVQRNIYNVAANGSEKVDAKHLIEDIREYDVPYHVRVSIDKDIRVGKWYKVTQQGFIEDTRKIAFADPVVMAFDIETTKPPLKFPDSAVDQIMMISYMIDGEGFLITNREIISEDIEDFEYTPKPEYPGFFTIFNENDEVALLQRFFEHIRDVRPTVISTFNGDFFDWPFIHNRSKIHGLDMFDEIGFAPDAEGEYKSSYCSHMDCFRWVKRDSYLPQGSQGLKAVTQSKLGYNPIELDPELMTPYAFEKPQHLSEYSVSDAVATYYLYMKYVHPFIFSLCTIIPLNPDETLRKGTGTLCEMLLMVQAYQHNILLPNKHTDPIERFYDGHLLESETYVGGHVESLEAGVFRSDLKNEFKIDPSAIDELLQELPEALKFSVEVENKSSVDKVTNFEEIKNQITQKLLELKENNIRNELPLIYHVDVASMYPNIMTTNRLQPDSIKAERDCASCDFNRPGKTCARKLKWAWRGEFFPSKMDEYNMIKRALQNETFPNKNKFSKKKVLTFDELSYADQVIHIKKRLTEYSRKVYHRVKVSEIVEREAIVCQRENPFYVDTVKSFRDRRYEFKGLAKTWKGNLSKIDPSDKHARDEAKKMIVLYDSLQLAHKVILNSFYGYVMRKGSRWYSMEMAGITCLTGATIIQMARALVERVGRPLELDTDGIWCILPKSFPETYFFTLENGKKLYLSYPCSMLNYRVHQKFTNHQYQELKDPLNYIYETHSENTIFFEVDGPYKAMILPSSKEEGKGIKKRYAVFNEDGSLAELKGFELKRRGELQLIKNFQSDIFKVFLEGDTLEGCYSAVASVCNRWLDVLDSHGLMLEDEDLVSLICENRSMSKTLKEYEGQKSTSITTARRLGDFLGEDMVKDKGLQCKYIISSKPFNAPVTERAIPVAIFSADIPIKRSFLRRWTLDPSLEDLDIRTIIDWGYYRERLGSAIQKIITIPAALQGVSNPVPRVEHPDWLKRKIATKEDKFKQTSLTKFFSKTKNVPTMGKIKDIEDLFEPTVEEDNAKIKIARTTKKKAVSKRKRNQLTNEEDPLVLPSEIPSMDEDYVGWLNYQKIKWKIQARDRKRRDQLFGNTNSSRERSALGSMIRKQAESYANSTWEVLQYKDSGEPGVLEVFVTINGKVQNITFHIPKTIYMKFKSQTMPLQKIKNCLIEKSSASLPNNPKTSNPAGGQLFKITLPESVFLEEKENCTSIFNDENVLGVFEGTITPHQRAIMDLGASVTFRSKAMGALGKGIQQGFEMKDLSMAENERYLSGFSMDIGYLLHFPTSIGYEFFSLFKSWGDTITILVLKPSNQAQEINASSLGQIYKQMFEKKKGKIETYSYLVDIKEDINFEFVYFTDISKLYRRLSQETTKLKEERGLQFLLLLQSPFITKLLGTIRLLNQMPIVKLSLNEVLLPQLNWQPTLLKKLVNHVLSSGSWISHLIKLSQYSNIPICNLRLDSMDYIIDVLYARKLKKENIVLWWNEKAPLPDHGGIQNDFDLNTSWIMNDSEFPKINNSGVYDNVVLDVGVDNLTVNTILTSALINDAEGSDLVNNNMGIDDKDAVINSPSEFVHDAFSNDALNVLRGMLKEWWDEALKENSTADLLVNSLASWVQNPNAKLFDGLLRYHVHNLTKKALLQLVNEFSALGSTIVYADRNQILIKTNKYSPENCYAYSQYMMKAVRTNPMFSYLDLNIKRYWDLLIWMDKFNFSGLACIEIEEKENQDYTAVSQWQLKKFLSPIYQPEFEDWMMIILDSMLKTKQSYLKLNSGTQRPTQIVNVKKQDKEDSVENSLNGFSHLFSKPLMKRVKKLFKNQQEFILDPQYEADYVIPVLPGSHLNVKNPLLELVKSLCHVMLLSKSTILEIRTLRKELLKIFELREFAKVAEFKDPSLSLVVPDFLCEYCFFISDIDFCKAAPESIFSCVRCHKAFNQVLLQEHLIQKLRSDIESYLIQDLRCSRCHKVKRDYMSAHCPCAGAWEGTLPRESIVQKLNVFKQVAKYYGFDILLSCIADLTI

binding result [1]	binding result [2]	Binder
binds	binds	Dpb4 subunit of S. cerevisiae DNA polymerase ε holoenzyme (natural protein, DNA polymerase epsilon subunit D Dpb4, S. cerevisiae; histone fold domain and C-terminal region; The holoenzyme was purified on anti-Flag resin; also called Dbp4; source: yeast, subunit genes integrated under the Gal1/10 promotor, galactose-induced; purified as holoenzyme (anti-Flag resin, MonoS)) MPPKGWRKDAQGNYPTTSYIKEQENITIQDLLFPKSTIVNLAREVPQQSGKKLLINKDASLALQRGATVFVNHLLLFAREIAKSQDKKSCSVDDVLSALDHIGHSALKGPVRDKLDEYQAAVEQRKKEKLDSGEVDADGDIDMGEDKENVPVEKVKEHDEIEEQGDALQDVEESSEKKQKTESQDVETRVQNLEQT
–	binds	B1
–	binds	Dpb2 subunit of S. cerevisiae DNA polymerase ε holoenzyme (natural protein, DNA polymerase epsilon subunit B Dpb2, S. cerevisiae; N-terminal helical domain (8-94, disordered), PDE domain (168-209 and 349-689), OB domain (210-348); The holoenzyme was purified on anti-Flag resin; also called Dbp2; B subunit; source: yeast, subunit genes integrated under the Gal1/10 promotor, galactose-induced; purified as holoenzyme (anti-Flag resin, MonoS)) MFGSGNVLPVKIQPPLLRPLAYRVLSRKYGLSIKSDGLSALAEFVGTNIGANWRQGPATIKFLEQFAAVWKQQERGLFIDQSGVKEVIQEMKEREKVEWSHEHPIQHEENILGRTDDDENNSDDEMPIAADSSLQNVSLSSPMRQPTERDEYKQPFKPESSKALDWRDYFKVINASQQQRFSYNPHKMQFIFVPNKKQNGLGGIAGFLPDIEDKVQMFLTRYYLTNDRVMRNENFQNSDMFNPLSSMVSLQNELSNTNRQQQSSSMSITPIKNLLGRDAQNFLLLGLLNKNFKGNWSLEDPSGSVEIDISQTIPTQGHYYVPGCMVLVEGIYYSVGNKFHVTSMTLPPGERREITLETIGNLDLLGIHGISNNNFIARLDKDLKIRLHLLEKELTDHKFVILGANLFLDDLKIMTALSKILQKLNDDPPTLLIWQGSFTSVPVFASMSSRNISSSTQFKNNFDALATLLSRFDNLTENTTMIFIPGPNDLWGSMVSLGASGTLPQDPIPSAFTKKINKVCKNVVWSSNPTRIAYLSQEIVIFRDDLSGRFKRHRLEFPFNESEDVYTENDNMMSKDTDIVPIDELVKEPDQLPQKVQETRKLVKTILDQGHLSPFLDSLRPISWDLDHTLTLCPIPSTMVLCDTTSAQFDLTYNGCKVINPGSFIHNRRARYMEYVPSSKKTIQEEIYI
